Target: PI-3-kinase (human (endogenous in Caco2)) (UniProt P42338)
Assay: co-IP; as the basal co-IP, but Caco2 Dsg2^WT cells incubated for 24h with TNFα (100 ng/ml) before lysis; Dsg2/PI-3-kinase ratio of optical densities, fold of controls, n=4

Chain of UniProt P42338 (P42338 whole entry): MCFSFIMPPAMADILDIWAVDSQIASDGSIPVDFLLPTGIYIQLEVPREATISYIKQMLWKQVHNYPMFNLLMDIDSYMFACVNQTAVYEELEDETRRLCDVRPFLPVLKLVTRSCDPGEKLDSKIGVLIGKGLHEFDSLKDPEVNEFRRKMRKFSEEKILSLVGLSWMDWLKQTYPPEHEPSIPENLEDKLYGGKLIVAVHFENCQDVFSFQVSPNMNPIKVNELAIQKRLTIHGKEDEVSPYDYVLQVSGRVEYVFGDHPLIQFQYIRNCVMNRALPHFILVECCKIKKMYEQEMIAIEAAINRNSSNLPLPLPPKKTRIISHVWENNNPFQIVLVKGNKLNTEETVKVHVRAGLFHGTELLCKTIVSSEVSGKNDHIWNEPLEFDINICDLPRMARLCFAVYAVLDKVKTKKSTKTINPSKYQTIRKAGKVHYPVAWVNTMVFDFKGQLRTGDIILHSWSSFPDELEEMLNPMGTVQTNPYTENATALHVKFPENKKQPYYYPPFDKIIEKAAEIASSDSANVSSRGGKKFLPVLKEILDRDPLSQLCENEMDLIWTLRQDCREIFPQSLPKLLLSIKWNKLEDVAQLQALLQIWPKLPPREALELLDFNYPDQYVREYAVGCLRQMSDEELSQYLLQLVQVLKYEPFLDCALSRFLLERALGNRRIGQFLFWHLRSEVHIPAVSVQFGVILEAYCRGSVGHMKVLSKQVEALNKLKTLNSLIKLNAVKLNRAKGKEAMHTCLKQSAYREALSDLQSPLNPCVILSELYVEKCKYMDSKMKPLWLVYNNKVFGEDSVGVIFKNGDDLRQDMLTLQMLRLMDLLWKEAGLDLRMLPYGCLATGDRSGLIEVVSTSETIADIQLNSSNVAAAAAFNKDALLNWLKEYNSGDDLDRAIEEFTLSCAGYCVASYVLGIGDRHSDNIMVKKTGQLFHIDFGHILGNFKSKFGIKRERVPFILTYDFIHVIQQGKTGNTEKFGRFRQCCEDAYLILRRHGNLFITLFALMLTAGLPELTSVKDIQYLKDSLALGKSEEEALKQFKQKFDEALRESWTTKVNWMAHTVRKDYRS

- fold of controls (Dsg2/PI-3-kinase ratio in the co-IP, after TNFα) (fold of controls): 0.34
Substance: Desmoglein 2 (from UniProt Q14126 50-1118) (natural protein)

Reference: article PMC8514949
